Laboratory results taken from patent US20260028403A1 (Zymeworks, published 2026).
Positions count from the first letter of the chain named. Numbers in names are those of the source.

B1: v37690 (trispecific antibody, human IgG1, kappa, L234A L235A)
heavy 1: not shown
heavy 2: QVQLVESGGGLVQPGGSLRLSCSVSGIDLSSNPMIWVRQAPGKGLQYIGIIDTDGSTYYADWAKGRFTISKDSTTVYLQINSPRAEDTAVYYCARRLHGSSNGYYDDLWGQGTLVTVSSGGGGSGGGGSGGGGSGGGGSDGQMTQSPSSVSASVGDRVTITCQASQSIYSYLSWYQQKPGQRPKLLIYKASTLASGVPSRFSGSGSGTDFTLTISSVQPEDFATYYCQQGYTVTNVDKNTFGGGTKVEIKAAEPKSSDKTHTCPPCPAPEAAGGPSVFLFPPKPKDTLMISRTPEVTCVVVSVSHEDPEVKFNWYVDGVEVHNAKTKPREEQYNSTYRVVSVLTVLHQDWLNGKEYKCKVSNKALPAPIEKTISKAKGQPREPQVYVLPPSRDELTKNQVSLLCLVKGFYPSDIAVEWESNGQPENNYLTWPPVLDSDGSFFLYSKLTVDKSRWQQGNVFSCSVMHEALHNHYTQKSLSLSPG
light: DIQMTQSPSSLSASVGDRVTITCRASESVEYYVTSLMQWYQQKPGKAPKLLIYAASNVDSGVPSRFSGSGSGTDFTLTISSLQPEDIATYYCQQSRKVPFTFGGGTKVEIKRTVAAPSVFIFPPSDEQLKSGTASVVCLLNNFYPREAKVQWKVDNALQSGNSQESVTEQDSKDSTYSLSSTLTLSKADYEKHKVYACEVTHQGLSSPVTKSFNRGEC
notes: also called v37638 format, CD28 VH Y1112S
B2: v37634 (trispecific antibody, human IgG1, lambda, L234A L235A)
heavy 1: not shown
heavy 2: B1 heavy 2
light: NFMLTQPHSVSESPGKTVTISCKRNTGNIGSNYVNWYQQHEGSSPTTIIYRNDKRPDGVSDRFSGSIDRSSKSASLTISNLKTEDEADYFCQSYSSGFIFGGGTKLTVLGQPKAAPSVTLFPPSSEELQANKATLVCLISDFYPGAVTVAWKADSSPVKAGVETTTPSKQSNNKYAASSYLSLTPEQWKSHRSYSCQVTHEGSTVEKTVAPTECSGGGGSGDIQMTQSPSSLSASVGDRVTITCRASESVEYYVTSLMQWYQQKPGKAPKLLIYAASNVDSGVPSRFSGSGSGTDFTLTISSLQPEDIATYYCQQSRKVPFTFGGGTKVEIKGGGGSGGGGSGGGGSGGGGSQVQLQESGPGLVKPSETLSLTCAVSGFSLTSYGVHWIRQPPGKGLEWLGVIWPGGGTNFNSALMSRLTISEDTSKNQVSLKLSSVTAADTAVYYCARDRAYGNYLYAMDYWGQGTLVTVSS
notes: CD28 scFv on C-terminus of the CD3 Fab light chain; Het Fc, FcKO; also called CD3xCD28xCldn18.2 trispecific
B3: v37642 (trispecific antibody, human IgG1, kappa, L234A L235A)
heavy 1: not shown
heavy 2: EVQLVESGGGLVQPGGSLRLSCAASGVTFNYYGMSWIRQAPGKGLEWVASITSSGGRIYYPDSVKGRFTISRENTQKTLYLQMNSLRAEDTAVYYCTLDGRDGWVAYWGQGTLVTVSSGGGGSGGGGSGGGGSGGGGSNFMLTQPHSVSESPGKTVTISCKRNTGNIGSNYVNWYQQHEGSSPTTIIYRNDKRPDGVSDRFSGSIDRSSKSASLTISNLKTEDEADYFCQSYSSGFIFGGGTKLTVLAAEPKSSDKTHTCPPCPAPEAAGGPSVFLFPPKPKDTLMISRTPEVTCVVVSVSHEDPEVKFNWYVDGVEVHNAKTKPREEQYNSTYRVVSVLTVLHQDWLNGKEYKCKVSNKALPAPIEKTISKAKGQPREPQVYVLPPSRDELTKNQVSLLCLVKGFYPSDIAVEWESNGQPENNYLTWPPVLDSDGSFFLYSKLTVDKSRWQQGNVFSCSVMHEALHNHYTQKSLSLSPG
light: B1 light
notes: also called Cldn18.2xCD28xCD3 trispecific
B4: v38990 (trispecific antibody, human IgG1, kappa, L234A L235A)
heavy 1: not shown
heavy 2: B3 heavy 2
light: B1 light
notes: also called v37642 format, CD28 VH Y1113S
B5: v37694 (trispecific antibody, human IgG1, kappa, L234A L235A)
heavy 1: not shown
heavy 2: B1 heavy 2
light: B1 light with Y31A
notes: also called v37638 format, CD28 VL Y1031A
B6: v38991 (trispecific antibody, human IgG1, kappa, L234A L235A)
heavy 1: not shown
heavy 2: B3 heavy 2
light: B1 light
notes: also called v37642 format, CD28 VH N1111aA
B7: v38992 (trispecific antibody, human IgG1, kappa, L234A L235A)
heavy 1: not shown
heavy 2: B3 heavy 2
light: B1 light
notes: also called v37642 format, CD28 VH G1064S
B8: v38993 (trispecific antibody, human IgG1, kappa, L234A L235A)
heavy 1: not shown
heavy 2: B3 heavy 2
light: B1 light
notes: also called v37642 format, CD28 VH L1112aN

Columns and labels:
[1] = target: T1, CD28 on primary human T cells (human, UniProt P10747 19-220); experiment: cell-based or functional assay
[2] = target: T1, CD28 on primary human T cells; experiment: cell-based or functional assay; remark: listed apart in the source
[3] = target: T2, Recombinant human/cynomolgus/rhesus macaque CD28 mouse IgG2a Fc fusion protein (Acro Biosystems) (human/cynomolgus/rhesus macaque, UniProt P10747 19-152); experiment: SPR Biacore T200, CD28-mIgG2a Fc on CM5
T2 construct: bought; also called huCD28

Human CLDN18.2 = target: T3, Human CLDN18.2 (human); experiment: flow cytometry, SNU 601 cells
T3 construct: on transfected HEK293-6E cells or native on SNU 601 cells
Experimental: To determine the impact of the trispecific construct format on the construct's ability to binding CLDN18.2, the binding affinity to CLDN18.2 was measured for certain constructs using flow cytometry as described below.
To that end, cells (>80% viability) were resuspended to 1×10⁶ cells/mL in FACS buffer (PBS+2% FBS; Gibco) and seeded in a 96 well v-bottom plate (Sarstedt). Cells were mixed with antibody dilutions and incubated at 4° C. for one hour. Following incubation, cells were washed twice by adding 150 mL FACS buffer and centrifuging for 400×g for 3 minutes. […] Cells were washed twice by adding 150 mL FACS buffer and centrifuging for 400×g for 3 minutes. Cells were resuspended in FACS buffer and acquired on the BD LSRFortessa Cell Analyzer.

[4] = target: T4, Recombinant human CD3 epsilon/delta heterodimer, his tag protein (Acro Biosystems) (human, UniProt P07766 23-126; P04234 22-105); experiment: SPR Biacore T200, CD3 e/d-his on CM5, construct injected, 1:1 model;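 also: measured at 25 °C in HEPES-buffered saline with EDTA and Tween 20 at pH 7.4, values are means of three independent runs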
T4 construct: bought
Experimental: All SPR binding experiments were carried out using a BiacoreT200 instrument at 25° C. with 10 mM HEPES, 150 mM NaCl, 3 mM EDTA, and 0.05% Tween 20 at pH 7.4. Recombinant human CD3 epsilon/delta heterodimer, his tag protein (Acro Biosystems) was covalently immobilized on CM5 sensor chips by amine coupling. Purified antibody constructs to be tested were indirectly captured on the sensor chip by binding to the recombinant CD3 protein when injected at 30 μL/min for 140-500 s following a dissociation for 600-1200 s. Resultant kₒₙ, koff and KD values were determined from fitting the sensorgrams using the 1:1 binding model with reported values as the mean of three independent runs.

[5] = target: T5, Recombinant human/Cynomolgus/Rhesus macaque CD28 Protein, His Tag (Acro Biosystems) (human/cynomolgus/rhesus macaque, UniProt P10747 19-152); experiment: SPR, v37634 captured on anti-human IgG Fc on CM5, CD28-his tag flowed
T5 construct: used only for v37634; also called CD28-his tag

[6] = target: T1, CD28 on primary human T cells; experiment: cell-based or functional assay; remark: listed apart in the source
[7] = target: T1, CD28 on primary human T cells; experiment: cell-based or functional assay; remark: listed apart in the source
[8] = target: T1, CD28 on primary human T cells; experiment: cell-based or functional assay; remark: listed apart in the source
[9] = target: T2, Recombinant human/cynomolgus/rhesus …; experiment: SPR, in-format anti-CD28 variants, huCD28
[10] = target: T2, Recombinant human/cynomolgus/rhesus …; experiment: SPR Biacore T200, CD28-mIgG2a Fc on CM5, construct injected, 1:1 model;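 also: fc fusion captured by amine coupling, run at 25 °C in HEPES buffer pH 7.4, association 140-500 s then dissociation 600-1200 s, values averaged over three independent runs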

Binder	IFNg mean cytokine, T cells alone, 45 nM construct [6] [pg/mL]	IL-2 mean cytokine, T cells alone, 45 nM construct [6] [pg/mL]	IFNg EC50, T cells + SNU 601 [7] [nM]	IFNg maximum cytokine, T cells + SNU 601 [7] [pg/mL]	IL-2 EC50, T cells + SNU 601 [7] [nM]	IL-2 maximum cytokine, T cells + SNU 601 [7] [pg/mL]	IC50, TDCC on SNU 601-RFP, 1:5 E:T [8] [nM]	IC50, TDCC on SNU 601-RFP, 2:1 E:T [8] [nM]	Maximum Mean Cytotoxicity (%), 1:5 E:T [8] [%]	Maximum Mean Cytotoxicity (%), 2:1 E:T [8] [%]	Fold-change from WT [9] [fold]	Kd [9] [nM]	koff [9] [s⁻¹]	kon [9] [M⁻¹ s⁻¹]	further results
B1	–	–	–	–	–	–	–	–	–	–	–	–	–	–	IC50, T cell-dependent cytotoxicity on SNU 601 [1]: 0.00121 nM; Maximum Killing (%), SNU 601 [1]: 92.3%; IL-2 maximum cytokine, T cells alone [2]: 243 pg/mL; IL-2 maximum cytokine, T cells with SNU 601 cells [2]: 2700 pg/mL; TNFa maximum cytokine, T cells alone [2]: 23 pg/mL; TNFa maximum cytokine, T cells with SNU 601 cells [2]: 518 pg/mL; binding result [3]: no binding
B2	–	–	–	–	–	–	–	–	–	–	–	–	–	–	Bmax (Human CLDN18.2): 6840 MFI; EC50 (Human CLDN18.2): 27.2 nM; Kd [4]: 77.6 nM; koff [4]: 0.0123 s⁻¹; kon [4]: 163000 M⁻¹ s⁻¹; Kd [5]: 258 nM; koff [5]: 0.00187 s⁻¹; kon [5]: 7230 M⁻¹ s⁻¹
B3	857	2930	0.00367	3040	0.00267	5060	0.0023	0.000166	96.9	98.7	1	42.3	0.00286	70400	Bmax (Human CLDN18.2): 9310 MFI; EC50 (Human CLDN18.2): 24.1 nM; Kd [4]: 62 nM; koff [4]: 0.0117 s⁻¹; kon [4]: 189000 M⁻¹ s⁻¹; Kd [10]: 20.2 nM; koff [10]: 0.00198 s⁻¹; kon [10]: 98200 M⁻¹ s⁻¹
B4	0.9	1.8	0.604	3290	1.56	5240	0.145	0.00358	95.4	97.8	225	9510	–	–	–
B5	–	–	–	–	–	–	–	–	–	–	–	–	–	–	IC50, T cell-dependent cytotoxicity on SNU 601 [1]: 0.00144 nM; Maximum Killing (%), SNU 601 [1]: 93.1%; IL-2 maximum cytokine, T cells alone [2]: 29.9 pg/mL; IL-2 maximum cytokine, T cells with SNU 601 cells [2]: 226 pg/mL; TNFa maximum cytokine, T cells alone [2]: 12.9 pg/mL; TNFa maximum cytokine, T cells with SNU 601 cells [2]: 166 pg/mL; binding result [3]: no binding
B6	15.4	26.5	0.0909	6150	0.0222	9620	0.0127	0.000838	95.6	98.2	6.1	257	0.0145	62900	–
B7	559	1690	0.023	3990	0.00916	5560	–	–	–	–	3.1	130	0.00738	59800	–
B8	475	1520	0.0793	4450	0.0287	8410	–	–	–	–	3.4	144	0.00817	59000	–
